Molecular target: T1, TnpB (ISDra2) (Deinococcus radiodurans (ISDra2), UniProt Q7DF80 1-408)
T1 sequence: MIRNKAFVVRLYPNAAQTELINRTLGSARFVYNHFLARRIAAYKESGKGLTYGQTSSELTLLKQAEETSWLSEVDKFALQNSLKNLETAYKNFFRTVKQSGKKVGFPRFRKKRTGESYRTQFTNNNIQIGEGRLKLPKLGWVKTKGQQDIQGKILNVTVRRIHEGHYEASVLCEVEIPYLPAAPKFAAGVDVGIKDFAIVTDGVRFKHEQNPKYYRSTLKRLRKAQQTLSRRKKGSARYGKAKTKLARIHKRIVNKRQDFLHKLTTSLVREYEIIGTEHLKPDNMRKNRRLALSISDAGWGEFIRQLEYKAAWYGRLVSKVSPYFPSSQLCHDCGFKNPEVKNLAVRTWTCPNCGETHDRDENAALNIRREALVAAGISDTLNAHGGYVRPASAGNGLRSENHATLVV
Test: co-purification (urea-PAGE, northern blot); bound RNA is 5'-processed, 100-160 nt; Ternary complex: TnpB–ωRNA + target DNA, room temperature 30 min; SEC in 20 mM Tris-HCl pH 8.0, 150 mM NaCl, 2 mM MgCl2, 10 uM ZnCl2, 1 mM DTT. Copurification:
Details: protein: recombinant; tags: N-terminal MBP, removed with HRV3C; pseudoknot, stems 1-3, triple helix

B1: ωRNA full length (as co-expressed) (structured_RNA)
RNA: GAUUCAAGAAUCCCGAAGUGAAGAAUCUUGCCGUCCGUACAUGGACUUGCCCGAACUGUGGGGAAACCCAUGACCGAGACGAGAACGCUGCGCUGAACAUUCGGCGUGAAGCGUUGGUGGCUGCGGGAAUCUCAGACACCUUAAACGCUCAUGGAGGCUAUGUCAGACCUGCUUCGGCGGGCAAUGGUCUGCGAAGUGAGAAUCACGCGACUUUAGUCGUGUGAGGUUCAAGAGUCCCUUGGCGCCC
binding result: binds
